# Measurements reported in PMC2760644 (Journal of molecular biology, 2009).
# Target: F-actin (chicken, UniProt P68139 1-377)
# Assay: co-sedimentation
binder,measurement,value
"supervillin headpiece, wild type (domain or fragment) LAKLCKTIYPLADLLARPLPEGVDPLKLEIYLTDEDFEFALDMTRDEYNALPAWKQVNLKKAKGLF",Kd,> 20 mM
